# According to the supplement of paper PMC7877785:
# ± gives the uncertainty stated by the source.
# Assay: self-splicing fitness, log relative to wild type (ln ratio); higher = more splicing; Tetrahymena group I intron in knt gene, E. coli kanamycin selection, DiMSum; sequences stand for … in CUCUCU…GGAGGGAAAAGUUAUCAGGCAUGCACCUGGUAGCUAGUCUUUAAACCAAUAGAUUGCAUCGGUUUAAAAGGCAAGACCGUCAAAUUGCGGGAAAGGGGUCAACAGCCGUUCAGUACCAAGUCUCAGGGGAAACUUUGAGAUGGCCUUGCAAAGGGUAUGGUAAUAAGCUGACGGACAUGGUCCUAACCACGCAGCCAAGUCCUAAGUCAACAGAUCUUCUGUUGAUAUGGAUGCAGUUCACAGACUAAAUGUCGGUCGGGGAAGAUGUAUUCUUCUCAUAAGAUAUAGUCGGACCUCUCCUUAAUGGGAGCUAGCGGAUGAAGUGAUGCAACACUGGAGCCGCUGGGAACUAAUUUGUAUGCGAAAGUAUAUUGAUUAGUUUUGGAGUACUCGUGGUCG
# Method in brief: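 Fitness was computed with DiMSum as the error-weighted combination of replicate fold changes, kanamycin versus none, each normalised to wild type. The library randomised all eight intron nucleotides of the P1ex region, with the intron placed in the knt kanamycin-resistance gene on pET-22b(+) in E. coli BL21(DE3). Six replicate transformations were grown overnight at 37°C or 30°C on LB agar with or without 25 μg/mL kanamycin, plus 100 μg/mL carbenicillin, 50 μM IPTG and 0.2% rhamnose. Pooled colonies were amplicon-sequenced on an Illumina HiSeq 2500.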
Sequence,self-splicing fitness (ln) (30 °C),self-splicing fitness (ln) (37 °C)
GAGAAGCAAUAUUACGGGGU,-3.06 ± 0.2,-3.13 ± 0.28
AUAAAGCAAUAUUACGCAGG,-1.32 ± 0.098,-0.913 ± 0.14
CCCAAGCAAUAUUACGCGUA,-3.43 ± 0.2,-1.29 ± 0.17
GAUAAGCAAUAUUACGGUCG,-0.842 ± 0.1,0.117 ± 0.13
CUCGAGCAAUAUUACGUUCC,-3.4 ± 0.19,-2.63 ± 0.27
GCGAAGCAAUAUUACGCGUA,-2.03 ± 0.16,-0.565 ± 0.13
AGCAAGCAAUAUUACGGUGU,-2.65 ± 0.13,-0.608 ± 0.1
UGUAAGCAAUAUUACGGGUG,-0.874 ± 0.18,-0.00955 ± 0.19
GCUUAGCAAUAUUACGAAAU,-0.692 ± 0.076,-0.498 ± 0.095
GCGUAGCAAUAUUACGUGAG,-2.75 ± 0.17,-2.67 ± 0.17
GUGGAGCAAUAUUACGGUGA,–,-1.81 ± 0.49
ACCGAGCAAUAUUACGGUUU,-3.42 ± 0.14,-2.35 ± 0.18
CAGCAGCAAUAUUACGGAAG,-0.307 ± 0.054,-0.29 ± 0.068
UAUUAGCAAUAUUACGCAUC,-3.67 ± 0.31,-1.7 ± 0.3
AGGGAGCAAUAUUACGAGGG,–,-2.2 ± 0.5
GCCCAGCAAUAUUACGGAAU,-0.828 ± 0.056,0.223 ± 0.078
AUCGAGCAAUAUUACGCAGU,-2.07 ± 0.23,-1.85 ± 0.33
GUAAAGCAAUAUUACGAAAU,-0.837 ± 0.078,-0.128 ± 0.1
CGUAAGCAAUAUUACGGGAC,-2.9 ± 0.29,-2.47 ± 0.41
CCCCAGCAAUAUUACGCGGU,-3.91 ± 0.13,-2.17 ± 0.15
CGUGAGCAAUAUUACGGGAC,–,-1.88 ± 0.41
CCAUAGCAAUAUUACGUUAC,-2.14 ± 0.17,-3.54 ± 0.47
AACCAGCAAUAUUACGGAAG,-1.22 ± 0.066,0.117 ± 0.089
GAACAGCAAUAUUACGGUCG,-1.17 ± 0.069,-0.372 ± 0.098
AAUGAGCAAUAUUACGGUGA,-3.31 ± 0.27,-2.26 ± 0.42
AGCGAGCAAUAUUACGUAAG,–,-1.76 ± 0.37

Sequence,self-splicing fitness (ln) (30 °C),self-splicing fitness (ln) (37 °C)
GCAUAGCAAUAUUACGCUCG,-0.827 ± 0.11,-0.165 ± 0.13
GAAAAGCAAUAUUACGUUAG,-2.27 ± 0.12,-1.85 ± 0.14
GGGUAGCAAUAUUACGGUCA,0.229 ± 0.18,-0.659 ± 0.18
ACGUAGCAAUAUUACGUGUA,-2.51 ± 0.14,-2.2 ± 0.14
AUCUAGCAAUAUUACGGCUC,-0.871 ± 0.16,-0.185 ± 0.19
CUAUAGCAAUAUUACGGCCA,–,-3.35 ± 0.43
GCUCAGCAAUAUUACGAAAA,-0.758 ± 0.13,-1.02 ± 0.18
GCAAAGCAAUAUUACGCUAU,-2.57 ± 0.23,-1.06 ± 0.17
AGGGAGCAAUAUUACGGCGU,-2.04 ± 0.12,-1.05 ± 0.11
AGAUAGCAAUAUUACGCCGU,-0.974 ± 0.11,-0.953 ± 0.12
CCUAAGCAAUAUUACGUUCG,-2.38 ± 0.091,-2.02 ± 0.11
UCGAAGCAAUAUUACGUAUG,-2.78 ± 0.16,-1.33 ± 0.15
AUCAAGCAAUAUUACGCUCA,0.0216 ± 0.073,0.342 ± 0.096
UUCGAGCAAUAUUACGUAGG,-2.9 ± 0.2,-1.52 ± 0.19
GAACAGCAAUAUUACGAUUA,-0.501 ± 0.11,-0.296 ± 0.098
AAAAAGCAAUAUUACGAUAC,-2.28 ± 0.16,-0.696 ± 0.13
CUGCAGCAAUAUUACGACCG,0.161 ± 0.088,0.198 ± 0.12
UAUGAGCAAUAUUACGCAAU,-3.54 ± 0.25,-2.32 ± 0.18
AGACAGCAAUAUUACGCACC,-0.553 ± 0.13,0.279 ± 0.17
GUAUAGCAAUAUUACGGGCU,-2.86 ± 0.17,-1.38 ± 0.19
AUUAAGCAAUAUUACGGGGG,-2.97 ± 0.27,-2.33 ± 0.33
AGCCAGCAAUAUUACGUGUG,-3.01 ± 0.09,-1.61 ± 0.086
UUACAGCAAUAUUACGCCUG,-0.557 ± 0.054,0.0548 ± 0.081
CAUCAGCAAUAUUACGUCCG,-0.619 ± 0.059,0.497 ± 0.088
ACCGAGCAAUAUUACGUUUU,-3.3 ± 0.15,-2.59 ± 0.15
GACCAGCAAUAUUACGACAA,-0.854 ± 0.099,-0.621 ± 0.13

Sequence,self-splicing fitness (ln) (30 °C),self-splicing fitness (ln) (37 °C)
GUGGAGCAAUAUUACGCUAA,-2.72 ± 0.25,-1.6 ± 0.19
UCUAAGCAAUAUUACGAUGU,-0.365 ± 0.06,-0.355 ± 0.074
UGGGAGCAAUAUUACGCGUA,-0.6 ± 0.38,0.46 ± 0.3
CCCGAGCAAUAUUACGCCGG,-3.9 ± 0.37,-2.23 ± 0.34
AACGAGCAAUAUUACGAGAU,-4.25 ± 0.36,-3.02 ± 0.3
CCUAAGCAAUAUUACGUGCU,-3 ± 0.24,-2.55 ± 0.36
GUAUAGCAAUAUUACGAAGU,-3.25 ± 0.21,-1.81 ± 0.18
CAUCAGCAAUAUUACGUUAA,-2.79 ± 0.16,-1.85 ± 0.17
GCCGAGCAAUAUUACGGCGC,-1.48 ± 0.23,-0.221 ± 0.23
UGGCAGCAAUAUUACGAUUA,-0.716 ± 0.089,0.492 ± 0.11
ACUGAGCAAUAUUACGAAGA,-2.33 ± 0.22,-1.64 ± 0.2
CUGCAGCAAUAUUACGUCGU,-4.05 ± 0.25,-3.44 ± 0.25
UCAAAGCAAUAUUACGGUAC,-3.28 ± 0.16,-2.71 ± 0.22
CGCUAGCAAUAUUACGUAGA,-2.69 ± 0.14,-1.54 ± 0.19
GAGGAGCAAUAUUACGGGUU,-1.74 ± 0.14,-2.23 ± 0.22
ACCAAGCAAUAUUACGACCG,-1.17 ± 0.096,-0.119 ± 0.12
UUUGAGCAAUAUUACGGUCU,–,-2.63 ± 0.41
UGAUAGCAAUAUUACGUAAC,-3.41 ± 0.17,-2.76 ± 0.22
GUUCAGCAAUAUUACGCAAG,-0.984 ± 0.093,-0.654 ± 0.12
GACCAGCAAUAUUACGGCCC,-2.54 ± 0.24,-1.98 ± 0.34
CGGAAGCAAUAUUACGGUAC,-3.17 ± 0.27,-1.93 ± 0.25
CCACAGCAAUAUUACGGCAC,-4.06 ± 0.21,-2.87 ± 0.22
AACGAGCAAUAUUACGUACU,-1.04 ± 0.067,-1.04 ± 0.079
CGGGAGCAAUAUUACGGGAC,-3.57 ± 0.3,-3.25 ± 0.4
UAGCAGCAAUAUUACGCGGG,-2.24 ± 0.14,-2.04 ± 0.2
